Results reported in the supplement of paper PMC10724198.
± gives the standard deviation of the averaged measurements.

How the values were obtained:
Saccharomyces cerevisiae [1] = assay: protein stability index of tFT-peptide fusion (C-terminal peptide) (PSI (0-1 scale)); higher = more stable (slower turnover); settings: genetic background: wild type; temperature: 30 C
Saccharomyces cerevisiae [2] = assay: as above
Description: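 MPS profiling in S. cerevisiae of the tFT-X12 degron library: putative degron peptides plus stable controls, 12 aa, fused to the C-terminus of a sfGFP-mCherry timer. Cells are FACS-sorted into 8 mCherry/sfGFP bins and deep-sequenced. PSI runs from 0 (unstable) to 1 (stable). Backgrounds are wild type, das1Δ and doa10Δ at 30 °C, and wild type, das1Δ, cdc34-1 and cdc53-1 at 37 °C; 2-3 technical replicates each.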

[3] = genetic background: cdc34-1, temperature: 37 C
[4] = genetic background: cdc53-1, temperature: 37 C
[5] = genetic background: das1 deletion, temperature: 30 C
[6] = genetic background: das1 deletion, temperature: 37 C
[7] = genetic background: doa10 deletion, temperature: 30 C
[8] = genetic background: wild type, temperature: 30 C
[9] = genetic background: wild type, temperature: 37 C
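Further: PSI is a weighted mean of sequencing reads over stability bins, variants kept only with over 10 reads, mCherry proximal and sfGFP distal, peptide attached via GGGS linker.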

VIRFNSAPRFLV
protein stability index (Saccharomyces cerevisiae [1]): 0.213 ± 0.047 | protein stability index (Saccharomyces cerevisiae [2]; [3]): 0.614 ± 0.054 | protein stability index (Saccharomyces cerevisiae [2]; [4]): 0.7214 ± 0.0026 | protein stability index (Saccharomyces cerevisiae [2]; [5]): 0.629 ± 0.026 | protein stability index (Saccharomyces cerevisiae [2]; [6]): 0.7443 ± 0.0009 | protein stability index (Saccharomyces cerevisiae [2]; [7]): 0.108 ± 0.031 | protein stability index (Saccharomyces cerevisiae [2]; [8]): 0.125 ± 0.016 | protein stability index (Saccharomyces cerevisiae [2]; [9]): 0.236 ± 0.0043

FFRFNCVFWLFL
protein stability index (Saccharomyces cerevisiae [1]): 0.3129 ± 0.0019 | protein stability index (Saccharomyces cerevisiae [2]; [3]): 0.509 ± 0.0099 | protein stability index (Saccharomyces cerevisiae [2]; [4]): 0.551 ± 0.033 | protein stability index (Saccharomyces cerevisiae [2]; [5]): 0.443 ± 0.021 | protein stability index (Saccharomyces cerevisiae [2]; [6]): 0.604 ± 0.034 | protein stability index (Saccharomyces cerevisiae [2]; [7]): 0.211 ± 0.0028 | protein stability index (Saccharomyces cerevisiae [2]; [8]): 0.233 ± 0.016 | protein stability index (Saccharomyces cerevisiae [2]; [9]): 0.428 ± 0.053

LVCLPVGFFLMW
protein stability index (Saccharomyces cerevisiae [1]): 0.4899 ± 0.0037 | protein stability index (Saccharomyces cerevisiae [2]; [3]): 0.565 ± 0.084 | protein stability index (Saccharomyces cerevisiae [2]; [4]): 0.638 ± 0.0074 | protein stability index (Saccharomyces cerevisiae [2]; [5]): 0.47 ± 0.034 | protein stability index (Saccharomyces cerevisiae [2]; [6]): 0.634 ± 0.0072 | protein stability index (Saccharomyces cerevisiae [2]; [7]): 0.388 ± 0.0045 | protein stability index (Saccharomyces cerevisiae [2]; [8]): 0.411 ± 0.013 | protein stability index (Saccharomyces cerevisiae [2]; [9]): 0.576 ± 0.0068

PPPPLFLIVLHL
protein stability index (Saccharomyces cerevisiae [1]): 0.434 ± 0.033 | protein stability index (Saccharomyces cerevisiae [2]; [3]): 0.5196 ± 0.0015 | protein stability index (Saccharomyces cerevisiae [2]; [4]): 0.621 ± 0.031 | protein stability index (Saccharomyces cerevisiae [2]; [5]): 0.465 ± 0.03 | protein stability index (Saccharomyces cerevisiae [2]; [6]): 0.642 ± 0.012 | protein stability index (Saccharomyces cerevisiae [2]; [7]): 0.4109 ± 0.0026 | protein stability index (Saccharomyces cerevisiae [2]; [8]): 0.401 ± 0.026 | protein stability index (Saccharomyces cerevisiae [2]; [9]): 0.593 ± 0.023

RRAVGLANFTIK
protein stability index (Saccharomyces cerevisiae [2]; [3]): 0.705 ± 0.016 | protein stability index (Saccharomyces cerevisiae [2]; [4]): 0.773 ± 0.035 | protein stability index (Saccharomyces cerevisiae [2]; [5]): 0.678 ± 0.062 | protein stability index (Saccharomyces cerevisiae [2]; [6]): 0.693 ± 0.028 | protein stability index (Saccharomyces cerevisiae [2]; [7]): 0.639 ± 0.06 | protein stability index (Saccharomyces cerevisiae [2]; [8]): 0.671 ± 0.019 | protein stability index (Saccharomyces cerevisiae [2]; [9]): 0.706 ± 0.022

FGGVFCVMARLV
protein stability index (Saccharomyces cerevisiae [2]; [3]): 0.602 ± 0.14 | protein stability index (Saccharomyces cerevisiae [2]; [4]): 0.685 ± 0.016 | protein stability index (Saccharomyces cerevisiae [2]; [5]): 0.629 ± 0.034 | protein stability index (Saccharomyces cerevisiae [2]; [6]): 0.689 ± 0.01 | protein stability index (Saccharomyces cerevisiae [2]; [7]): 0.318 ± 0.0054 | protein stability index (Saccharomyces cerevisiae [2]; [8]): 0.356 ± 0.025 | protein stability index (Saccharomyces cerevisiae [2]; [9]): 0.506 ± 0.0059

AVTMSYQCGIFI
protein stability index (Saccharomyces cerevisiae [2]; [3]): 0.646 ± 0.029 | protein stability index (Saccharomyces cerevisiae [2]; [4]): 0.672 ± 0.031 | protein stability index (Saccharomyces cerevisiae [2]; [5]): 0.564 ± 0.0081 | protein stability index (Saccharomyces cerevisiae [2]; [6]): 0.71 ± 0.028 | protein stability index (Saccharomyces cerevisiae [2]; [7]): 0.5372 ± 0.0042 | protein stability index (Saccharomyces cerevisiae [2]; [8]): 0.566 ± 0.019 | protein stability index (Saccharomyces cerevisiae [2]; [9]): 0.68 ± 0.022

VLICFSVFSWVV
protein stability index (Saccharomyces cerevisiae [2]; [3]): 0.0264 ± 0.00023 | protein stability index (Saccharomyces cerevisiae [2]; [4]): 0.0313 ± 0.00079 | protein stability index (Saccharomyces cerevisiae [2]; [5]): 0.0368 ± 0.01 | protein stability index (Saccharomyces cerevisiae [2]; [6]): 0.0531 ± 0.0097 | protein stability index (Saccharomyces cerevisiae [2]; [7]): 0.0228 ± 0.0066 | protein stability index (Saccharomyces cerevisiae [2]; [8]): 0.0178 ± 0.0049 | protein stability index (Saccharomyces cerevisiae [2]; [9]): 0.0371 ± 0.0086

LIVFSGFLFLLS
protein stability index (Saccharomyces cerevisiae [2]; [3]): 0.442 ± 0.01 | protein stability index (Saccharomyces cerevisiae [2]; [4]): 0.53 ± 0.049 | protein stability index (Saccharomyces cerevisiae [2]; [5]): 0.373 ± 0.031 | protein stability index (Saccharomyces cerevisiae [2]; [6]): 0.5639 ± 0.0056 | protein stability index (Saccharomyces cerevisiae [2]; [7]): 0.3758 ± 0.0014 | protein stability index (Saccharomyces cerevisiae [2]; [8]): 0.364 ± 0.023 | protein stability index (Saccharomyces cerevisiae [2]; [9]): 0.5096 ± 0.0027

PVPERTSATEPP
protein stability index (Saccharomyces cerevisiae [2]; [3]): 0.61 ± 0.052 | protein stability index (Saccharomyces cerevisiae [2]; [4]): 0.667 ± 0.029 | protein stability index (Saccharomyces cerevisiae [2]; [5]): 0.617 ± 0.038 | protein stability index (Saccharomyces cerevisiae [2]; [6]): 0.6671 ± 0.006 | protein stability index (Saccharomyces cerevisiae [2]; [7]): 0.634 ± 0.0083 | protein stability index (Saccharomyces cerevisiae [2]; [8]): 0.627 ± 0.019 | protein stability index (Saccharomyces cerevisiae [2]; [9]): 0.655 ± 0.0013

GGGGGGRWGRLC
protein stability index (Saccharomyces cerevisiae [2]; [3]): 0.634 ± 0.047 | protein stability index (Saccharomyces cerevisiae [2]; [4]): 0.752 ± 0.031 | protein stability index (Saccharomyces cerevisiae [2]; [5]): 0.66 ± 0.019 | protein stability index (Saccharomyces cerevisiae [2]; [6]): 0.7572 ± 0.0018 | protein stability index (Saccharomyces cerevisiae [2]; [7]): 0.189 ± 0.0036 | protein stability index (Saccharomyces cerevisiae [2]; [8]): 0.232 ± 0.018 | protein stability index (Saccharomyces cerevisiae [2]; [9]): 0.478 ± 0.0099

IRRWGRCRVRCM
protein stability index (Saccharomyces cerevisiae [2]; [3]): 0.584 ± 0.029 | protein stability index (Saccharomyces cerevisiae [2]; [4]): 0.655 ± 0.034 | protein stability index (Saccharomyces cerevisiae [2]; [5]): 0.428 ± 0.037 | protein stability index (Saccharomyces cerevisiae [2]; [6]): 0.616 ± 0.018 | protein stability index (Saccharomyces cerevisiae [2]; [7]): 0.255 ± 0.0087 | protein stability index (Saccharomyces cerevisiae [2]; [8]): 0.288 ± 0.028 | protein stability index (Saccharomyces cerevisiae [2]; [9]): 0.52896 ± 2.4e-05

VPPGCSLFAFIL
protein stability index (Saccharomyces cerevisiae [2]; [3]): 0.7246 ± 0.005 | protein stability index (Saccharomyces cerevisiae [2]; [4]): 0.75537 ± 0.00043 | protein stability index (Saccharomyces cerevisiae [2]; [5]): 0.644 ± 0.025 | protein stability index (Saccharomyces cerevisiae [2]; [6]): 0.7794 ± 0.005 | protein stability index (Saccharomyces cerevisiae [2]; [7]): 0.555 ± 0.032 | protein stability index (Saccharomyces cerevisiae [2]; [8]): 0.547 ± 0.019 | protein stability index (Saccharomyces cerevisiae [2]; [9]): 0.73 ± 0.01

RLLLLPGPLALQ
protein stability index (Saccharomyces cerevisiae [2]; [3]): 0.634 ± 0.022 | protein stability index (Saccharomyces cerevisiae [2]; [4]): 0.73 ± 0.034 | protein stability index (Saccharomyces cerevisiae [2]; [5]): 0.67 ± 0.022 | protein stability index (Saccharomyces cerevisiae [2]; [6]): 0.7 ± 0.016 | protein stability index (Saccharomyces cerevisiae [2]; [7]): 0.685 ± 0.054 | protein stability index (Saccharomyces cerevisiae [2]; [8]): 0.673 ± 0.021 | protein stability index (Saccharomyces cerevisiae [2]; [9]): 0.714 ± 0.062

APPLPFPTPPPS
protein stability index (Saccharomyces cerevisiae [2]; [3]): 0.68 ± 0.031 | protein stability index (Saccharomyces cerevisiae [2]; [4]): 0.747 ± 0.034 | protein stability index (Saccharomyces cerevisiae [2]; [5]): 0.644 ± 0.042 | protein stability index (Saccharomyces cerevisiae [2]; [6]): 0.693 ± 0.038 | protein stability index (Saccharomyces cerevisiae [2]; [7]): 0.647 ± 0.029 | protein stability index (Saccharomyces cerevisiae [2]; [8]): 0.633 ± 0.029 | protein stability index (Saccharomyces cerevisiae [2]; [9]): 0.678 ± 0.0098

PASASVHPRILC
protein stability index (Saccharomyces cerevisiae [1]): 0.559 ± 0.05

PPPPHFLVPLSP
protein stability index (Saccharomyces cerevisiae [1]): 0.695 ± 0.021

LPRVSMTPTRVG
protein stability index (Saccharomyces cerevisiae [1]): 0.6535 ± 0.0029

RLRPGGHPCVFF
protein stability index (Saccharomyces cerevisiae [1]): 0.66 ± 0.041

RCRGPVYIPPGT
protein stability index (Saccharomyces cerevisiae [1]): 0.654 ± 0.027

VSHGPAIHALSI
protein stability index (Saccharomyces cerevisiae [1]): 0.669 ± 0.028

FERVLVFENRKY
protein stability index (Saccharomyces cerevisiae [1]): 0.728 ± 0.051

DFPPRPTPLSSL
protein stability index (Saccharomyces cerevisiae [1]): 0.658 ± 0.033

SPPPPGPLPPPS
protein stability index (Saccharomyces cerevisiae [1]): 0.718 ± 0.038

LVIGTTLSSLML
protein stability index (Saccharomyces cerevisiae [1]): 0.742 ± 0.066

NLRSIYKLGRLT
protein stability index (Saccharomyces cerevisiae [1]): 0.549 ± 0.011

VLVTWLESVGGL
protein stability index (Saccharomyces cerevisiae [1]): 0.634 ± 0.027

SPPPPILPCKPL
protein stability index (Saccharomyces cerevisiae [1]): 0.716 ± 0.031

PPGSPPSLHLPP
protein stability index (Saccharomyces cerevisiae [1]): 0.734 ± 0.021

GQQILGGRSLEG
protein stability index (Saccharomyces cerevisiae [1]): 0.63 ± 0.035

LPPLAPPPPPLP
protein stability index (Saccharomyces cerevisiae [1]): 0.688 ± 0.026

PLIDRSTCSLSG
protein stability index (Saccharomyces cerevisiae [1]): 0.6366 ± 0.0032

AWGGELGATSGG
protein stability index (Saccharomyces cerevisiae [1]): 0.711 ± 0.0094

TFINVHRFCSAI
protein stability index (Saccharomyces cerevisiae [1]): 0.647 ± 0.024

GTETKIRNKHVE
protein stability index (Saccharomyces cerevisiae [1]): 0.645 ± 0.059

QKKKKKKKRKKT
protein stability index (Saccharomyces cerevisiae [1]): 0.59 ± 0.062

NNRIRNIISIRK
protein stability index (Saccharomyces cerevisiae [1]): 0.743 ± 0.04

CSSTCRCCAAFD
protein stability index (Saccharomyces cerevisiae [1]): 0.641 ± 0.0086
